Test results: US20110129470A1 (BOARD OF TRUSTEES OF THE UNIVERSITY OF ILLNOIS, published 2011)

Target: the molecule itself
Assay: X-ray crystal structure of human dCK
From the text: Crystals were transferred to a cryoprotectant solution that in the case of the citrate condition was made of mineral oil (Sigma) while for the crystals grown in PEG it was composed of the mother liquor and 10% (w/v) xylitol-10% (w/v) sucrose. Once the crystals were mounted in loops, they were frozen by directly immersing them in liquid nitrogen. X-ray data were collected at the Advanced Photon Source using the BioCARS beamlines BM-C and BM-D, and the SERCAT beamline ID-22.
Data for the MAD data set were collected to 2.3 Å resolution. A partially built model into the MAD electron density was used to solve the tetragonal crystals. The electron density for dCK extended to the last residue (Leu260), while the N-terminus (residues 1 to 19) was flexible and could not be modeled. […] The ligands were refined without conformational torsion-angle restraints in order to prevent bias towards a particular ring conformation for the sugars.

B1: Human deoxycytidine kinase (dCK), wild type (enzyme)
chain: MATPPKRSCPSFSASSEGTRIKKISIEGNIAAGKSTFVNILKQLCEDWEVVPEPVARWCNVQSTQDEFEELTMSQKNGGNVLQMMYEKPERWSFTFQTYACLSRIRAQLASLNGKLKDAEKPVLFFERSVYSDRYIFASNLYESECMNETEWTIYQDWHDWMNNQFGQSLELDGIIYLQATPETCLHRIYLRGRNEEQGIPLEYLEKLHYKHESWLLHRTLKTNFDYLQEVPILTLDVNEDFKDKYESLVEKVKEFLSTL
modifications: selenomethionine-substituted protein was used for the MAD phasing data set
notes: Recombinant protein from E. coli; the His-tag was cleaved by thrombin before crystallisation; Residues 1 to 19 were flexible and not modelled; It is a homodimer in the crystal structure; also called human dCK; WT dCK
B1: binds.
